6 substances from patent publication US20240369535A1, “METHODS AND MATERIALS FOR DETERMINING pGC TARGET DOSAGE” (Mayo Foundation for Medical Education and Research, priority 2021, published 2024) can be followed below.

For one test, the target named is T1, human GC-A (Homo sapiens, UniProt P16066).
T1 construct: expressed in transfected cells
T1 sequence (P16066 33-1061): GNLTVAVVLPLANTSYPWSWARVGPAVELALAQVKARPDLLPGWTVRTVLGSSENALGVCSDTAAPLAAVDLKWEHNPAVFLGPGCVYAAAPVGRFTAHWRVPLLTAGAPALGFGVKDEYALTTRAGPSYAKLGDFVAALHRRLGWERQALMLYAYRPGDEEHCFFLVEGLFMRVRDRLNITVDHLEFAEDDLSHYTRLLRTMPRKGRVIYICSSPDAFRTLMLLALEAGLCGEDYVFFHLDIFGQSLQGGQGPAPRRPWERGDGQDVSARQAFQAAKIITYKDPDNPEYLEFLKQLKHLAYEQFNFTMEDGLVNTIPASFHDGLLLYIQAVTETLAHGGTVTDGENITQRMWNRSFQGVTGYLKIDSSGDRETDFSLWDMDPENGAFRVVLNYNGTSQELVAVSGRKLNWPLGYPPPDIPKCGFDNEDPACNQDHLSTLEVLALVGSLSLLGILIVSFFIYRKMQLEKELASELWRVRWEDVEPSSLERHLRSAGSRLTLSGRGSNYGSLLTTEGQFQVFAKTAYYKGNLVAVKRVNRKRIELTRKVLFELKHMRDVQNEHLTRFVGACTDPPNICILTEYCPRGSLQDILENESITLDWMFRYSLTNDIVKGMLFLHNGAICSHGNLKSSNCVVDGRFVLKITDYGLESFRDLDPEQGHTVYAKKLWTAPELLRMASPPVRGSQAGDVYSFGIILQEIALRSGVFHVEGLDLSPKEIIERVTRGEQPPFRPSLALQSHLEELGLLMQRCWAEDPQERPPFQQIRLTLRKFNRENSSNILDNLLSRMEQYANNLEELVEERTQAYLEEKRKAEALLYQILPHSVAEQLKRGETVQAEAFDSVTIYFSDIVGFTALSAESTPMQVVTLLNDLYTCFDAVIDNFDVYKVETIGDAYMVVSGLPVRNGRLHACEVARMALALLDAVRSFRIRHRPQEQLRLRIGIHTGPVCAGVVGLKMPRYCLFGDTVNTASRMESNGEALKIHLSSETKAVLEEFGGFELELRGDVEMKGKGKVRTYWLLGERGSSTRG
The experiment in a line: NP/GC-A/cGMP potency assay (Example 1): cGMP production in HEK293 cells overexpressing human GC-A. The test is classed as cell-based.

For another test, the target named is T2, human pGC-B (Homo sapiens, UniProt P20594).
T2 construct: expressed in transfected cells
T2 sequence (P20594 23-1047): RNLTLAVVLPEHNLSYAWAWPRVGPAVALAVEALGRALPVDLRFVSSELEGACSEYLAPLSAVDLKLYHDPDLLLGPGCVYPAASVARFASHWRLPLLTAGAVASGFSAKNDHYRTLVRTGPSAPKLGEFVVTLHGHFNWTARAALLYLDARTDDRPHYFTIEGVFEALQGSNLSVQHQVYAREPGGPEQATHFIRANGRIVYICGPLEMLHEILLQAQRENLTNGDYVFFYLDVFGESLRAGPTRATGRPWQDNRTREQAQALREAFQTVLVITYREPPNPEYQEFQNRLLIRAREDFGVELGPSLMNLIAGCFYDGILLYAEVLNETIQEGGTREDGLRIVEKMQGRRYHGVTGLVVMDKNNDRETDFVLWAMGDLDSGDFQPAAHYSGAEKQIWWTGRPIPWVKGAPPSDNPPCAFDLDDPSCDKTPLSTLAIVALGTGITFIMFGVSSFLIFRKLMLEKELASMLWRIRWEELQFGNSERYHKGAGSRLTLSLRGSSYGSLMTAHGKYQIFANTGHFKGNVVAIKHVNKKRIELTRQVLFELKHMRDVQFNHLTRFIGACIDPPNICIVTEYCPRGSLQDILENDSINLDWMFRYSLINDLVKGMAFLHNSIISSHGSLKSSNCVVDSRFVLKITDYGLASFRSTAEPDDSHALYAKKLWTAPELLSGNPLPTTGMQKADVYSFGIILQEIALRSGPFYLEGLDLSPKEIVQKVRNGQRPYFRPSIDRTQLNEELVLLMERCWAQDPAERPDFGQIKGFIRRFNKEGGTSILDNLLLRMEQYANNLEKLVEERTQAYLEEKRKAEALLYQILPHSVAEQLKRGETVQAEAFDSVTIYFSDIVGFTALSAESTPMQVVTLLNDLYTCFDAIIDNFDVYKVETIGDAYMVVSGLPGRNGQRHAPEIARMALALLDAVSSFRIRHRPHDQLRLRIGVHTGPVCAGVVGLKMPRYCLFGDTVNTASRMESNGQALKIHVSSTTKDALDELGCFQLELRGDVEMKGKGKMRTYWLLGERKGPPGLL
The experiment in a line: NP/pGC-B/cGMP potency assay (Example 5), HEK293 cells overexpressing human pGC-B. The test is classed as cell-based. As to conditions: ADHF plasma. On the procedure: (§1) In vitro Cell Culture: HEK 293 cells were stably transfected with human pGC-A or pGC-B using LIPOFECTAMINE™ (Invitrogen, Grand Island, NY) (Chen et al. 2020, supra). Transfected cells (HEK/GC-A or (HEK/GC-B) were maintained in DMEM supplemented with 10% FBS and 250 μg/ml G418. Cells in 48-well plates were grown to 80-90% confluency and then incubated in Hanks Balanced Salt Solution (HBSS, Invitrogen) containing 20 mM HEPES, 0.1% BSA, and 0.5 mM 3-isobutyl-1-methylxanthine (IBMX, Sigma).
NP/pGC-B/cGMP Potency Assay: Human plasma samples from patients with ADHF (N=6) were utilized. Stably transfected HEK293 cells engineered to overexpress human pGC-B were cultured (as described above) and grown in 48-well plates to 80-90% confluence. On the day of the experiment, human plasma was diluted 10× with HBSS. Diluted plasma (250 μl) was added together with vehicle (PBS), native CNP (an endogenous pGC-B activator), C53 (a designer CNP analog/pGC-B activator) or CRRL-408 (a designer dual pGC-A and pGC-B activator) at doses of 10^−10, 10^−8, or 10^−7 M to the HEK/GC-B cells and incubated for 10 minutes at 37° C. Afterwards, cells were washed once with PBS and lysed with 0.1M HCl. cGMP was then assayed using an ELISA (Enzo Life Sciences) as described elsewhere (Chen et al. 2018, supra).

Test [1] has as its target human pGC-A receptor (human) (UniProt P16066). Briefly: cell-based or functional assay.
In a further test the target is T3, human pGC-A (Homo sapiens, UniProt P16066).
T3 construct: expressed in transfected cells
T3 sequence (P16066 33-1061): T1 sequence (P16066 33-1061)
The experiment in a line: NP/pGC-A/cGMP potency assay (Example 5), HEK293 cells overexpressing human pGC-A. The test is classed as cell-based. The procedure: as §1
NP/pGC-A/cGMP Potency Assay: Human plasma samples from patients with HT (N=6), ADHF (N=6), and CKD (N=5) were utilized. Stably transfected HEK293 cells engineered to overexpress human pGC-A were cultured (as described above) and were grown in 48-well plates to 80-90% confluence. On the day of the experiment, human plasma was diluted 10× with HBSS. […] Afterwards, the cells were washed once with PBS and lysed with 0.1M HCl. cGMP was then assayed using an ELISA (Enzo Life Sciences) as described elsewhere (Chen et al. 2018, supra).

Experimental for human GC-A: Transfected cells (HEK/GCA) were maintained in Dulbecco Modified Eagle medium (DMEM) supplemented with 10% FBS, and 250 μg/ml G418. Cells in 48-well plates were grown to 80-90% confluency and then incubated in Hanks Balanced Salt Solution (HBSS, Invitrogen) containing 20 mM HEPES, 0.1% BSA and 0.5 mM 3-isobutyl-1-methylxanthine (IBMX, Sigma).
A stable transfected cell line of HEK293 cells engineered to overexpress human GC-A was grown in 48-well plates to 80-90% confluency. […] Studies were repeated with human plasma with or without addition of the designer GC-A activator, MANP, at doses of 10^−10 M and 10^−8 M.

As for “B-type natriuretic peptide [BNP, reference compound]”, the “mean cGMP level” value is 6.9 ± 0.9 pmol/mL with human GC-A (synthetic peptide alone, concentrations corresponding to ADHF deficient ANP and BNP plasma (ANP 16.8, BNP 47.4 pg/mL), 10 min); 80.3 ± 16.9 pmol/mL with human GC-A (synthetic peptide alone, concentrations corresponding to ADHF elevated ANP and BNP plasma (ANP 350, BNP 1225.7 pg/mL), 10 min); 4.7 ± 0.4 pmol/mL in the test with human GC-A (synthetic peptide alone, concentrations mimicking healthy subject plasma (ANP 25.5, BNP 27 pg/mL), 10 min).
In the case of “C53: designer pGC-B activator, 53 amino acid intermediate form of CNP (SEQ ID NO:5) (DLRVDTKSRAAWARLLQEHPNARKYKGANKKGLSKGCFGLKLDRIGSMSGLGC)”, the cGMP levels result in the test with human pGC-B (dose 10^-8 M) is on record as “markedly potentiated”; in the test with human pGC-B (dose 10^-10 M (in a single patient)), “modestly potentiated”.
Take “C-type natriuretic peptide [CNP, reference compound]”: the cGMP levels entry in the test with human pGC-B (dose 10^-8 M) is listed as “markedly potentiated”.
For the substance “MANP (designer pGC-A activator) (peptide)”, in test [1], the cGMP in HEK293 cells overexpressing human GC-A; plasma of ADHF patients with elevated ANP and BNP plus 10^-8 M MANP worked out at 201 pmol/mL; the cGMP in HEK293 cells overexpressing human GC-A; plasma of ADHF patients with elevated ANP and BNP plus 10^-10 M MANP was found to be 60.4 pmol/mL.
“MANP: designer pGC-A activator, polypeptide SLRRSSCFGGRMDRIGAQSGLGCNSFRYRITAREDKQGWA (SEQ ID NO:1)”: the “mean cGMP level” value was 167 ± 14.1 pmol/mL in the test with human GC-A (healthy plasma + 10^-8 M MANP); 45 ± 5.5 pmol/mL in the test with human GC-A (healthy plasma + 10^-10 M MANP); 166.9 ± 9.1 pmol/mL with human GC-A (plasma of deficient ANP and BNP ADHF patients + 10^-8 M MANP); 33.8 ± 1.4 pmol/mL with human GC-A (plasma of deficient ANP and BNP ADHF patients + 10^-10 M MANP); 200.8 ± 5.4 pmol/mL in the test with human GC-A (plasma of elevated ANP and BNP ADHF patients + 10^-8 M MANP); 60.4 ± 9.7 pmol/mL in the test with human GC-A (plasma of elevated ANP and BNP ADHF patients + 10^-10 M MANP). Also, the cGMP levels result is reported as “markedly potentiated” with human pGC-A (ADHF plasma, dose 10^-8 M); “modestly potentiated” with human pGC-A (ADHF plasma, dose 10^-10 M); “markedly potentiated” in the test with human pGC-A (CKD plasma, dose 10^-8 M); “modestly potentiated” in the test with human pGC-A (CKD plasma, dose 10^-10 M); “markedly potentiated” with human pGC-A (HT plasma, dose 10^-8 M); “modestly potentiated” with human pGC-A (HT plasma, dose 10^-10 M).
For “synthetic human BNP (from UniProt P16860 103-134) (ligand)”, in test [1], the cGMP in HEK293 cells overexpressing human GC-A; synthetic BNP at the level of ADHF plasma with elevated ANP and BNP (1225.7 pg/mL) was 80.3 pmol/mL; the mean cGMP in HEK293 cells overexpressing human GC-A; synthetic BNP at 27 pg/mL (level of healthy plasma) came out at 4.7 pmol/mL; the mean cGMP in HEK293 cells overexpressing human GC-A; synthetic BNP at the level of ANP and BNP deficient ADHF plasma (47.4 pg/mL) turned out to be 6.9 pmol/mL.
